# From US8835136B2, “Engineered amine dehydrogenases and methods of use thereof” (Georgia Tech Research Corporation, priority 2012, dated 2014)
# B1: K77S N276L: PheDH-AmDH double variant, SEQ ID NO:2; PheDH library 1 hit 1H4 (protein)
# chain: SLVEKTSIIKDFTLFEKMSEHEQVVFCNDPATGLRAIIAIHDTTLGPALGGCRMQPYNSVEEALEDALRLSKGMTYSCAASDVDFGGGKAVIIGDPQKDKSPELFRAFGQFVDSLGGRFYTGTDMGTNMEDFIHAMKETNCIVGVPEAYGGGGDSSIPTAMGVLYGIKATNKMLFGKDDLGGVTYAIQGLGKVGYKVAEGLLEEGAHLFVTDINEQTLEAIQEKAKTTSGSVTVVASDEIYSQEADVFVPCAFGGVVNDETMKQFKVKAIAGSANLQLLTEDHGRHLADKGILYAPDYIVNSGGLIQVADELYEVNKERVLAKTKHIYDAILEVYQQAELDQITTMEAANRMCEQRMAARGRRNSFFTSSVKPKWDIRN
# Legend:
# [1] = Thermostability by circular dichroism (PheDH); format: physicochemical
# From the text: The thermostability of the AmDH was compared to its wild-type scaffold using two different methods, circular dichroism (CD) and a temperature versus activity profile. The mutation of the enzyme scaffold has affected the thermostability, in addition to the enzyme's function. […] Beyond 30 degrees, there is an earlier onset in the pronounced loss of structure of the double variant compared to the wild type; however, the slope folded fraction over temperature stays constant, indicative of constant enthalpy of melting. The K77S N276L mutations have slightly destabilized the protein structure, resulting in a melting point of 59.9° C., 4.4° C. less than the wild type. The specific cause for this change is difficult to determine. It likely to be either disruption of the ‘ideal’ packing of the wild-type enzyme's hydrophobic core or a net decrease in hydrophobicity by the amino acid substitutions which leads to a lower folding entropy.
# [2] = Oxidative deamination, spectrophotometric assay at 340 nm; format: biochemical; conditions: deamination, 0.1M glycine pH 10.0, 1 mM NAD+, 20 mM, 25° C.
# Procedure: (§1) Activity of purified proteins was measured using a spectrophotometric assay at 340 nm, corresponding to the cofactor nicotinamide adenine dinucleotide (NADH, ε340=6220 M^−1 cm^−1) (Dawson, et al., Clarendon Press, (1989). For reductive amination, reactions took place in 500 mM NH4Cl/NH4OH at pH 9.6, with 200 μM NADH and 20 mM of the ketone substrate, unless otherwise specified. […] All reactions were performed at 25° C. unless otherwise specified. Enzyme was added in 10 μL aliquots in dilute concentrations. Enzyme concentrations varied upon activity levels with the substrate present, but were dilute enough to ensure linear conversion kinetics over the analytical time period (10 min to 30 min). Specific activities were then calculated from the stoichiometric conversion of cofactor as determine by the change in absorbance at 340 nm over time.
# The enantioselectivity was initially estimated by measuring the deamination activity toward individual enantiomers of methylbenzylamine (MBA). […] A preference towards (R)-MBA over the corresponding (S)-enantiomer was evident in the discrepancies between the deamination activities of 0.586 U mg^−1 and 0.002 U mg^−1, respectively. These preliminary results were corroborated through direct measurement of the enantioselectivity of the MIBK amination in producing chiral 1,3-DMBA.
# [3] = Reductive amination of PFPA, spectrophotometric assay at 340 nm; format: biochemical
# Procedure: (§2) Activity of purified proteins was measured using a spectrophotometric assay at 340 nm, corresponding to the cofactor nicotinamide adenine dinucleotide (NADH, ε340=6220 M^−1 cm^−1) (Dawson, et al., Clarendon Press, (1989). For reductive amination, reactions took place in 500 mM NH4Cl/NH4OH at pH 9.6, with 200 μM NADH and 20 mM of the ketone substrate, unless otherwise specified. For oxidative deamination, reactions took place in 0.1 M NaHCO3/Na2CO3 buffer at pH 10.0, with 1 mM NAD+ with 10 mM of the amine substrate of interest. All reactions were performed at 25° C. unless otherwise specified. Enzyme was added in 10 μL aliquots in dilute concentrations. Enzyme concentrations varied upon activity levels with the substrate present, but were dilute enough to ensure linear conversion kinetics over the analytical time period (10 min to 30 min). Specific activities were then calculated from the stoichiometric conversion of cofactor as determine by the change in absorbance at 340 nm over time.
# The activity of the purified protein was evaluated using a spectrophotometric assay at 340 nm as described in Section 3.2.3 at 25° C. in various concentrations of NH4Cl/NH4OH buffer pH 9.6.
# Active variants were identified by the rate of change in absorbance at 340 nm, corresponding to the fastest activity. […] Some variants consumed the cofactor too quickly (<5 min) to be observed over multiple time points, and gave low absorbance in the initial time point. These variants were included for further characterization. The successful variants were sequenced (MWG Operon), and each unique sequence was expressed in pET28a/BL21 for histag purification and determination of kcat and KM values with PFPA.
# [4] = Reductive amination, spectrophotometric assay at 340 nm; format: biochemical; conditions: 500 mM NH4Cl/NH4OH pH 9.6, 200 μM NADH, 20 mM, 25° C.
# Procedure: as §2
# [5] = Kinetic parameter for NADH (PheDH-AmDH); format: biochemical
# Procedure: Kinetic parameters, kcat and KM, were determined for the enzyme and each of the reductive amination substrates; respectively. […] The kcat value for this AmDH enzyme with all three substrates saturated in aqueous NH4Cl/NH4OH buffer at pH 9.6 was 6.85 s^−1 at 25° C. This represents a near 15-fold enhancement above the maximum observed kcat of 0.46 s^−1 of the previously developed LeuDH-AmDH.
# [6] = Reductive amination activity; format: biochemical
# [7] = Temperature versus activity profile (PheDH-AmDH); format: biochemical
# Procedure: The thermostability of the double variant K77S N276L was additionally determined by a temperature versus activity plot, showing the results of amination activity measured in 5 M NH4Cl/NH4OH buffer pH 9.6, 200 μM NADH, 20 mM PFPA for 2 minutes (FIG. 17). […] The near linear increase corresponds to a low activation energy of 241 J mol^−1. The maximum specific activity was 11.6 U mg^−1 at a temperature of 50° C. Above 50° C., the enzyme began to rapidly lose activity as a result of denaturation. This deactivation correlated well with the circular dichroism data, where a dramatic loss of secondary structure was observed from 50° C. to 70° C.
# [8] = Enantioselectivity of PFPA amination, chiral gas chromatography; format: biochemical; conditions: chiral GC after TFAA derivatization
# From the text: Equally important to conversion is maintaining the selectivity of the enzyme after altering the substrate specificity. Preservation of the wild type (S)-selectivity towards phenylalanine will result in the asymmetric production of (R)-1-(4-fluorophenyl)-propyl-2-amine due to a change in Cahn-Ingold-Prelaw priority. The product amine resulting from enzymatic conversion with the co-factor recycle was isolated and derivatized using trifluoroacetic anhydride for analysis via chiral gas chromatography. An enantiomeric excess of >99.8% toward (R)-1-(4-fluorophenyl)-propyl-2-amine was confirmed, however, further resolution of the selectivity was limited by the separation capability of the chiral column. Throughout all experiments, the (S)-enantiomer remained below the detection limits. Even as the enzyme approaches levels of conversion beyond 90%, the high enantioselectivity toward (R)-1-(4-fluorophenyl)-propyl-2-amine is maintained. This renders the AmDH/GDH system a viable method for the production of chiral amines.
# [9] = Oxidative deamination, spectrophotometric assay at 340 nm; format: biochemical; conditions: deamination
# Procedure: as §1
molecule,measurement,setting,value
B1,decrease of melting point versus the wild type,[1],4.4 °C
same,melting point,"[1]; 100 μg mL-1, 50 mM sodium phosphate pH 8.0",59.9 °C
same,"Activity, R-MBA",[2],1.9 ± 1.8 mU/mg
same,"Activity, S-MBA",[2],<1.0 mU/mg
same,enhancement above maximum kcat of LeuDH-AmDH,[3],~15 fold
same,"kcat, amination of PFPA","[3]; 500 mM NH4Cl/NH4OH pH 9.6, 200 μM NADH, apparent",2.8 s⁻¹
same,Km,"[3]; 500 mM NH4Cl/NH4OH pH 9.6, 200 μM NADH, read-out: KM, amination of PFPA",4.37 mM
same,Km,"[3]; 5 M NH4Cl/NH4OH pH 9.6, 200 μM NADH, read-out: KM value of PFPA",7.75 mM
same,kcat with all three substrates saturated,"[3]; aqueous NH4Cl/NH4OH buffer pH 9.6, 25° C.",6.85 s⁻¹
same,"Activity, MIBK",[4],77.0 ± 1.3 mU/mg
same,"Activity, cyclohexanone",[4],27.5 ± 1.4 mU/mg
same,"Activity, ethylpyruvate",[4],18.4 ± 5.9 mU/mg
same,Km,[5],0.0239 mM
same,"activity level, 1,3 Phenylbutanedione",[6],30 mU/mg
same,activation energy,[7]; 10-45° C.,0.0576 kcal/mol
same,maximum specific activity,"[7]; at 50° C., 5 M NH4Cl/NH4OH pH 9.6, 200 μM NADH, 20 mM PFPA",11.6 U mg^−1
same,enantiomeric excess toward (R)-1-(4-fluorophenyl)-propyl-2-amine,[8],> 99.8%
same,"Activity, R/S-MBA","[9]; 40 mM, 20 mM of each enantiomer",0.5 ± 0.2 mU/mg
same,"Activity, 1,3-DMBA","[9]; 0.1M glycine pH 10.0, 1 mM NAD+, 20 mM, 25° C.",166.3 ± 0.0 mU/mg
